Reference: patent US20250326865A1, “C-MET PROTEIN-BINDING PEPTIDE COMPLEX” (PeptiDream Inc., priority 2021, published 2025)
Starred links: 1 amine or outer side, 2 acyl side, 3 side chain; linkers in the order of their positions; H or OH if unused. Positions of bridges follow the written chain, without caps; N, C: chain ends. Non-standard residues stand in square brackets, D forms with d. Primed or numbered codes have the meaning given here. Chains are numbered I, II in the order given. No end group written: not given here. CO(CH2)2(OCH2CH2)17CO = O=C(CCOCCOCCOCCOCCOCCOCCOCCOCCOCCOCCOCCOCCOCCOCCOCCOCCOCCC(=O)[*:2])[*:1]; CO(CH2CH2O)9CH2CH2CO = O=C(CCOCCOCCOCCOCCOCCOCCOCCOCCOCCC(=O)[*:2])[*:1]; NMeF = CN[C@@H](Cc1ccccc1)C(=O)O; Ahp(2) = CCCCC[C@H](N)C(=O)O; NMeC = CN[C@@H](CS)C(=O)O; Nle = CCCC[C@H](N)C(=O)O; Ahp′ = not defined here

B1: Peptide complex No. 40 in Table 4 (peptide SEQ ID NO: 29, GFs_c-Met-00014306p; linker SEQ ID NO: 36) (peptide)
peptide: {CH2CO}-[NMeF]TAVSLDSD[Ahp(2)]PRWS[NMeC]
chain: GK[CO(CH2CH2O)9CH2CH2CO]KG
modifications: thioether I:N-I:15 (inferred); also: homodimer of two cyclic peptides joined by linker G-K-cPEG9c-K-G, peptide C-terminus on linker
B2: Peptide complex No. 41 in Table 4 (peptide SEQ ID NO: 30, GFs_c-Met-00014304p; linker SEQ ID NO: 38) (peptide)
peptide: {CH2CO}-[NMeF]TAVS[NMeF]DSDRPRWS[NMeC]
chain: GK[CO(CH2)2(OCH2CH2)17CO]KG
modifications: thioether I:N-I:15 (inferred); also: homodimer of two cyclic peptides joined by linker G-K-cPEG17c-K-G, peptide C-terminus on linker
B3: Peptide complex No. 42 in Table 4 (peptide SEQ ID NO: 30, GFs_c-Met-00014304p; linker SEQ ID NO: 36) (peptide)
peptide: {CH2CO}-[NMeF]TAVS[NMeF]DSDRPRWS[NMeC]
chain: GK[CO(CH2CH2O)9CH2CH2CO]KG
modifications: thioether I:N-I:15 (inferred); also: homodimer of two cyclic peptides joined by linker G-K-cPEG9c-K-G, peptide C-terminus on linker
B4: Peptide complex No. 43 in Table 4 (peptide SEQ ID NO: 31, Gfs_c-Met-00014294p; linker SEQ ID NO: 38) (peptide)
peptide: {CH2CO}-[NMeF]TAVS[NMeF]DSD[Ahp(2)]PRWA[NMeC]
chain: GK[CO(CH2)2(OCH2CH2)17CO]KG
modifications: thioether I:N-I:15 (inferred); also: homodimer of two cyclic peptides joined by linker G-K-cPEG17c-K-G, peptide C-terminus on linker
B5: Peptide complex No. 44 in Table 4 (peptide SEQ ID NO: 31, Gfs_c-Met-00014294p; linker SEQ ID NO: 36) (peptide)
peptide: {CH2CO}-[NMeF]TAVS[NMeF]DSD[Ahp(2)]PRWA[NMeC]
chain: GK[CO(CH2CH2O)9CH2CH2CO]KG
modifications: thioether I:N-I:15 (inferred); also: homodimer of two cyclic peptides joined by linker G-K-cPEG9c-K-G, peptide C-terminus on linker
B6: Peptide complex No. 45 in Table 4 (peptide SEQ ID NO: 32, GFs_c-Met-00014297p; linker SEQ ID NO: 38) (peptide)
peptide: {CH2CO}-[NMeF]TAVS[NMeF]DPD[Ahp(2)]PRWA[NMeC]
chain: GK[CO(CH2)2(OCH2CH2)17CO]KG
modifications: thioether I:N-I:15 (inferred); also: homodimer of two cyclic peptides joined by linker G-K-cPEG17c-K-G, peptide C-terminus on linker
B7: Peptide complex No. 46 in Table 4 (peptide SEQ ID NO: 32, GFs_c-Met-00014297p; linker SEQ ID NO: 36) (peptide)
peptide: {CH2CO}-[NMeF]TAVS[NMeF]DPD[Ahp(2)]PRWA[NMeC]
chain: GK[CO(CH2CH2O)9CH2CH2CO]KG
modifications: thioether I:N-I:15 (inferred); also: homodimer of two cyclic peptides joined by linker G-K-cPEG9c-K-G, peptide C-terminus on linker
B8: Peptide complex No. 47 in Table 4 (peptide SEQ ID NO: 33, GFs_c-Met-00014300p; linker SEQ ID NO: 38) (peptide)
peptide: {CH2CO}-[NMeF]TAVS[NMeF]DPD[Ahp(2)]PRWS[NMeC]
chain: GK[CO(CH2)2(OCH2CH2)17CO]KG
modifications: thioether I:N-I:15 (inferred); also: homodimer of two cyclic peptides joined by linker G-K-cPEG17c-K-G, peptide C-terminus on linker
B9: Peptide complex No. 48 in Table 4 (peptide SEQ ID NO: 33, GFs_c-Met-00014300p; linker SEQ ID NO: 36) (peptide)
peptide: {CH2CO}-[NMeF]TAVS[NMeF]DPD[Ahp(2)]PRWS[NMeC]
chain: GK[CO(CH2CH2O)9CH2CH2CO]KG
modifications: thioether I:N-I:15 (inferred); also: homodimer of two cyclic peptides joined by linker, peptide C-terminus on linker
B10: GFs_c-Met-00014305-PEG17 dimer (peptide SEQ ID NO: 34, GFs_c-Met-00014336p; linker SEQ ID NO: 38) (peptide)
peptide: {CH2CO}-[NMeF]TAVS[NMeF]DED[Ahp(2)]PRWS[NMeC]
chain: GK[CO(CH2)2(OCH2CH2)17CO]KG
modifications: thioether I:N-I:15 (inferred); also: homodimer: two cyclic peptides joined by linker G-K-cPEG17c-K-G, peptide C-terminus on linker
B11: GFs_c-Met-00014318-PEG9 dimer (peptide SEQ ID NO: 34, GFs_c-Met-00014336p; linker SEQ ID NO: 36) (peptide)
peptide: {CH2CO}-[NMeF]TAVS[NMeF]DED[Ahp(2)]PRWS[NMeC]
chain: GK[CO(CH2CH2O)9CH2CH2CO]KG
modifications: thioether I:N-I:15 (inferred); also: homodimer: two cyclic peptides joined by linker G-K-cPEG9c-K-G, peptide C-terminus on linker

Tests used:
c-Met = molecular target: T1, c-Met (Homo sapiens, UniProt P08581); assay: Phospho-c-Met AlphaLISA assay (c-Met agonist activity) in A431 cells; type: cell-based; conditions: c-Met phosphorylation (Tyr1234/1235) in A431 cells, 15 minutes of stimulation; maximum signal induced by HGF = 100%
T1 construct: endogenous in cells; host or cells: A431 (human)
T1 sequence (P08581 25-1390): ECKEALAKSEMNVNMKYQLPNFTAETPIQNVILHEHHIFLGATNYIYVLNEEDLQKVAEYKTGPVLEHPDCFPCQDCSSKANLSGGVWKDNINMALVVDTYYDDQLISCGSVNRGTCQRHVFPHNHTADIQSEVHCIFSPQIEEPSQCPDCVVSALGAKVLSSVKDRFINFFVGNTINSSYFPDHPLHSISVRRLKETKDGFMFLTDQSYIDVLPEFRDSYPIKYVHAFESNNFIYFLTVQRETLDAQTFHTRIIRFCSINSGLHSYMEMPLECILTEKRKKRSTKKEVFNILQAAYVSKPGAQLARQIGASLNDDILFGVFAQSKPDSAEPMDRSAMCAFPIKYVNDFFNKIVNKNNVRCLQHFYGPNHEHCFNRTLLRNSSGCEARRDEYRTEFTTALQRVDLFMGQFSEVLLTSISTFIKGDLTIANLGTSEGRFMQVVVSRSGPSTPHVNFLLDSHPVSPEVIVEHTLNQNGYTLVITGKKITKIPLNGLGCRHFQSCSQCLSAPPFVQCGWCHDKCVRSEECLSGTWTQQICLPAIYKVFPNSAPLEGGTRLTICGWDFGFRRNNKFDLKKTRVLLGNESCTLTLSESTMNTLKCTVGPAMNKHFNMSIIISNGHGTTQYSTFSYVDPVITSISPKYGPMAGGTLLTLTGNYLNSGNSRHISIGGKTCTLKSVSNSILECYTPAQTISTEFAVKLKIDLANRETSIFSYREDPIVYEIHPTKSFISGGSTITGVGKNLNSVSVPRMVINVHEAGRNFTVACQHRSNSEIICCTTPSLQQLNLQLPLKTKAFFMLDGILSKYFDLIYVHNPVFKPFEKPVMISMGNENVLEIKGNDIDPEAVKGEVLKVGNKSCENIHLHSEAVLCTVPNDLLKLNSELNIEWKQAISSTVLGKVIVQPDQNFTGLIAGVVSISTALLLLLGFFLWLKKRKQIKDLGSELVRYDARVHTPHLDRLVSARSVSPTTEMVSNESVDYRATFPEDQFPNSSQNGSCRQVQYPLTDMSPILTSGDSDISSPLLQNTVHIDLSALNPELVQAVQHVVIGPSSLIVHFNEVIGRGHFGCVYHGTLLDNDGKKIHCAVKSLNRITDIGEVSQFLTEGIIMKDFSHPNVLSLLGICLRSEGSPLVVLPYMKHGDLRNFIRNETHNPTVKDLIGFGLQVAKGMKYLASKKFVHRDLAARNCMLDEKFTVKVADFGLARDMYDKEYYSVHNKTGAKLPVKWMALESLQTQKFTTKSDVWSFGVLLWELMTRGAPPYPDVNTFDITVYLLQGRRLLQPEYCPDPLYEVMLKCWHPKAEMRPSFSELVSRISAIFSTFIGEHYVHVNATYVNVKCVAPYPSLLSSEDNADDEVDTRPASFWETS
Experimental: To evaluate the activation potency (c-Met agonist activity) of c-Met of the peptide complex of the present invention, the phosphorylation of c-Met was verified. Human A431 cells were cultured in DMEM high glucose, GlutaMAX (registered trademark) Supplement, pyruvate (Thermo Fisher Scientific), containing 10% FBS (Gibco). After cells were detached using Accutase (Innovative cell technologies), they were seeded into a 96-well plate at 10000 cells per well and cultured overnight. The next day, for starvation, the culture medium was changed to DMEM high glucose, GlutaMAX (registered trademark) Supplement, pyruvate (Thermo Fisher Scientific), containing 0.1% BSA (Sigma-Aldrich), and the cells were cultured overnight. Then, the peptide complex synthesized in Example 3 or Recombinant Human HGF Protein (R&D systems) as a control was added, and after 15 minutes of stimulation, cells were lysed in a Lysis Buffer provided in the AlphaLISA (registered trademark) SureFire (registered trademark) Ultra™ Phospho-c-Met (Tyr1234/1235) kit (PerkinElmer). The assay was performed according to the kit protocol, and a SpectraMax (registered trademark) Paradigm (registered trademark) multimode microplate reader (Molecular Devices, LLC.) was used for signal detection. […] In the same manner, the C50 value was calculated by GraphPad Prism as the concentration of peptide showing 50% activity of the signal induced by HGF. […] Further, for a complex (GFs_c-Met-00014336-PEG13 dimer; complex no. 49 in Table 4) of a peptide (SEQ ID NO: 34) and a linker (SEQ ID NO: 37), a graph of c-Met agonist activity is shown in FIG. 1.

human c-Met protein = human c-Met protein (human, UniProt P08581 25-1390); assay: cell-based or functional assay
Chain of human c-Met protein (P08581 25-1390): as above

Molecule	C-Met Agonist Activity (2 or 1) (c-Met)	C-Met Agonist Activity (C50; nM): phospho-c-Met AlphaLISA, A431 cells (human c-Met protein)
13 ({CH2CO}-[NMeF]VYVS[NMeF]DDD[Ahp′]PRWH[NMeC]; thioether N-15 (inferred); not fully specified; reading uncertain; also: conjugated moiety via linker) [Peptide 13]	2 (those showing more than 50% activation were described as 2)	
9 ([NMeF]VYVS[NMeF]DDDSPRWS[NMeC]; also: conjugated moiety via linker, site not given here) [Peptide 9]	2 (those showing more than 50% activation were described as 2)	
10 ({CH2CO}-[NMeF]VYVS[NMeF]DDD[Ahp′]PSWS[NMeC]; thioether N-15 (inferred); not fully specified; reading uncertain; also: conjugated moiety via linker) [Peptide 10]	1 (those showing less than 50% activation as 1)	
15 ({CH2CO}-[NMeF]VYVS[NMeF]DDD[Ahp′]PRWV[NMeC]; thioether N-15 (inferred); not fully specified; reading uncertain; also: conjugated moiety via linker) [Peptide 15]	2 (those showing more than 50% activation were described as 2)	
12 ({CH2CO}-[NMeF]VYVS[NMeF]DDD[Ahp′]PRWD[NMeC]; thioether N-15 (inferred); not fully specified; reading uncertain; also: conjugated moiety via linker) [Peptide 12]	2 (those showing more than 50% activation were described as 2)	
4 (AVYVS[NMeF]DDD[Ahp′]PRWS[NMeC]; not fully specified (N-terminus, bridges); reading uncertain; also: conjugated moiety via linker) [Peptide 4]	1 (those showing less than 50% activation as 1)	
8 ({CH2CO}-[NMeF]VYVS[NMeF]DDD[Nle]PRWS[NMeC]; thioether N-15 (inferred); not fully specified; also: conjugated moiety via linker) [Peptide 8]	2 (those showing more than 50% activation were described as 2)	
3 ({CH2CO}-FVYVS[NMeF]DDD[Ahp′]PRWS[NMeC]; thioether N-15 (inferred); not fully specified; reading uncertain; also: conjugated moiety via linker) [Peptide 3]	1 (those showing less than 50% activation as 1)	
B1		2.13 nM
B2		0.32 nM
B3		0.33 nM
B4		0.45 nM
B5		0.33 nM
B6		0.71 nM
B7		0.67 nM
B8		0.5 nM
B9		0.35 nM
B10		0.27 nM
B11		0.24 nM
